Experiment [1] concerns the target GAL4 binding domain-parkin(1-465) fusion encoded by pGBT9-parkin(1-465) (UniProt P04386). The experiment can be described thus: cell-based or functional assay.
Experiment [2] deals with GFP-syt11 (GFP-tagged full-length human synaptotagmin XI) (human) [GFP: P42212]. The experiment can be described thus: co-IP with anti-HA agarose from HEK293 cells, anti-GFP blot.

This note sets out measurements from patent US20080301824A1.

The substance “GAL4 activation domain-hsyt11AB fusion encoded by pGAD10-hsyt11AB (human synaptotagmin 11, domains C2A and C2B) (from UniProt Q9BT88 157-431)” yielded a β-galactosidase activity in yeast two-hybrid liquid assay, against pGAD10-hsyt11AB with pGBT9 vector control in experiment [1] of 20 fold.

“HA-tagged parkin with missense mutation C289G (from UniProt O60260 1-465) (enzyme)” returned a fold less interaction than parkinC418R in experiment [2] of 2.5 fold less.
